Test results published in patent publication US20050037969A1 (ARBOR VITA, published 2005).
Ends that are not written are not given here. * marks the point of attachment. Biotin = O=C1N[C@H]2[C@H](CS[C@H]2CCCCC(=O)*)N1

T1: GST-CASK PDZ domain fusion protein (Homo sapiens, UniProt O14936 486-575)
T1 construct: also called Homo sapiens CASK protein
T1 sequence: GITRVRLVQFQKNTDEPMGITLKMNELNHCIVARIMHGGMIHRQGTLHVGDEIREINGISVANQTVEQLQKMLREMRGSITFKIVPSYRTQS

T2: GST-LIM protein PDZ domain fusion protein (Human, UniProt Q96HC4 2-85)
T2 construct: also called Human LIM protein; not shown: glutathione S-transferase encoded by vector pGEX-3X (Pharmacia)
T2 sequence: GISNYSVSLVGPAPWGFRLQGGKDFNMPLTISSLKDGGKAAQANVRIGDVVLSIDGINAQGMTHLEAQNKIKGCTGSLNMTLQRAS

T3: GST-TAX-IP2 PDZ domain fusion protein (human, UniProt O14908 129-216)
T3 construct: also called TAX-1P2; TAX2; not shown: glutathione S-transferase encoded by vector pGEX-3X (Pharmacia)
T3 chain: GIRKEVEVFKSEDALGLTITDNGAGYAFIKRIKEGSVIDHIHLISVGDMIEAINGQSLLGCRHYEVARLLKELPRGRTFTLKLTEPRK

T4: GST-cytohesin binding protein PDZ domain fusion protein (Homo sapiens (Human), UniProt O60759 74-165)
T4 construct: also called CBP; not shown: glutathione S-transferase encoded by vector pGEX-3X (Pharmacia)
T4 sequence: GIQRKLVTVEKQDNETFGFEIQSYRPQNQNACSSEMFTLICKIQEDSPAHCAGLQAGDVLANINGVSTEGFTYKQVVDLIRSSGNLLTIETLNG

T5: GST-DLG5 (p-dlg) PDZ domain fusion protein (Human, UniProt Q8TDM6 1343-1583)
T5 construct: also called Human discs large protein p-dlg; not shown: glutathione S-transferase encoded by vector pGEX-3X (Pharmacia)
T5 sequence: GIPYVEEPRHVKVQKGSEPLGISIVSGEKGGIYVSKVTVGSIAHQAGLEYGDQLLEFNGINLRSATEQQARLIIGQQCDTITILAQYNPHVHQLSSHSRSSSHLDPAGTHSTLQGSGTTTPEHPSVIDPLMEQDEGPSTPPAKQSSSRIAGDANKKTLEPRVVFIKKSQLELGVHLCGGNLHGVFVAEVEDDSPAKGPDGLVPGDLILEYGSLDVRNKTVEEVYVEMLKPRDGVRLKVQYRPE

T6: GST-mouse syntenin fusion protein (Mus musculus, UniProt O08992 108-286)
T6 construct: also called Mus musculus Syntenin; not shown: glutathione S-transferase encoded by vector pGEX-3X (Pharmacia)
T6 chain: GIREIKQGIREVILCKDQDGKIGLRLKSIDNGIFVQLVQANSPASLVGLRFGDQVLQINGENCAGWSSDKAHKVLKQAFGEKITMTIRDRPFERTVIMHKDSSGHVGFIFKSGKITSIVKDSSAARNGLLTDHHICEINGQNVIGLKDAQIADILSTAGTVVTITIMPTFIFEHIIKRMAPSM

T7: GST-TAX-IP40 PDZ domain fusion protein (human, UniProt Q6B4M5 150-252 (rat entry))
T7 construct: also called TAX40; not shown: glutathione S-transferase encoded by vector pGEX-3X (Pharmacia)
T7 sequence: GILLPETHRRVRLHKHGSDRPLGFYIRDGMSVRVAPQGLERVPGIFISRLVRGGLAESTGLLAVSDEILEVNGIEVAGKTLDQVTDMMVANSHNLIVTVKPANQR

T8: GST-DVL1 PDZ domain fusion protein (human, UniProt O14640 247-339)
T8 construct: also called human dishevelled segment polarity protein homolog; not shown: glutathione S-transferase encoded by vector pGEX-3X (Pharmacia)
T8 sequence: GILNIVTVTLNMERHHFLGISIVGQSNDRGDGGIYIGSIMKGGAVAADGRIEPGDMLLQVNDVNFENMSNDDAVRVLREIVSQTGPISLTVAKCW

T9: GST-KIAA0303 PDZ domain fusion protein (Homo sapiens (Human), UniProt O15021 1138-1228)
T9 construct: also called K303; not shown: glutathione S-transferase encoded by vector pGEX-3X (Pharmacia)
T9 sequence: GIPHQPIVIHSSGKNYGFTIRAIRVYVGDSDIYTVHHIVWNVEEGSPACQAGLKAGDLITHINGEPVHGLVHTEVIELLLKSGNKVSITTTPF

T10: X11β PDZ-GST fusion protein (Rattus norvegicus (Rat), UniProt O35431 560-745)
T10 construct: Order of GST and PDZ part and limits not seen in the excerpts
T10 chain: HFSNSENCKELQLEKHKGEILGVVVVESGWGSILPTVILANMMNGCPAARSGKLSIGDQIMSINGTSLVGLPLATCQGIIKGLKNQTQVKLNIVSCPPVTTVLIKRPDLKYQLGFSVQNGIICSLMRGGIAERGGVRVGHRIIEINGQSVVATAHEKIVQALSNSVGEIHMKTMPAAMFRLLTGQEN

T11: TAX-IP33 PDZ-GST fusion protein (Homo sapiens (Human), UniProt O14910 103-193)
T11 construct: Order of GST and PDZ part and limits not seen in the excerpts
T11 sequence: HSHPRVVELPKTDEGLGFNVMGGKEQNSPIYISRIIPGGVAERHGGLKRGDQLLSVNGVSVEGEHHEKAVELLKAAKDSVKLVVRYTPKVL

T12: K559 PDZ-GST fusion protein (Homo sapiens (Human), UniProt Q9Y6V0 4489-4593)
T12 construct: Order of GST and PDZ part and limits not seen in the excerpts
T12 sequence: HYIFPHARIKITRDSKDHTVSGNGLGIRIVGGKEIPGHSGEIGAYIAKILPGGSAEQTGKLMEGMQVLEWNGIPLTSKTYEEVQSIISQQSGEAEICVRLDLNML

T13: SP short PDZ-GST fusion protein (Homo sapiens (Human), UniProt O43464 350-435)
T13 construct: The label SP short is not explained in the excerpts
T13 sequence: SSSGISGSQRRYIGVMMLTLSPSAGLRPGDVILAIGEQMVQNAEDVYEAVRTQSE

T14: GEF PDZ-GST fusion protein (Homo sapiens (Human), UniProt Q8TEU7 293-400)
T14 construct: The label GEF is not explained in the excerpts
T14 sequence: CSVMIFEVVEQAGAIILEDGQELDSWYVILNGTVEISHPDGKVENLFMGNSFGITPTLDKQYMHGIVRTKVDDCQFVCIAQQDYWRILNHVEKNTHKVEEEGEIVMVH

B1: Mannose receptor C-terminal peptide AA31L (peptide)
peptide: Biotin-GTSDMKDLVGNIEQNEHSVI
notes: Only the last four residues are seen in the excerpts
B2: CC CKR-3 C-terminal peptide AA43L (peptide)
peptide: Biotin-LERTSSVSPSTAEPELSIVF
notes: as for B1

Biological target: T1, GST-CASK PDZ domain fusion protein
Assay: A/G assays

binding result	Binder
no binding	Biotin-ENLAPVTTFGKTNGYIA (also called CD148 (DEP-1)) [CD148 C-terminal peptide AA19L, biotinylated]
no binding	Biotin-SSKSKSSEESQTFFGLYKL (not fully specified, also called FasLigand; Fas ligand) [FasL C-terminal peptide AA23L-M, biotinylated]
no binding	B1
no binding	B2

Biological target: T2, GST-LIM protein PDZ domain fusion …
Assay: A/G assays

binding result	Binder
no binding	Biotin-ENLAPVTTFGKTNGYIA (also called CD148 (DEP-1)) [CD148 C-terminal peptide AA19L, biotinylated]
no binding	Biotin-SSKSKSSEESQTFFGLYKL (not fully specified, also called FasLigand; Fas ligand) [FasL C-terminal peptide AA23L-M, biotinylated]
no binding	B1
no binding	B2

Biological target: T3, GST-TAX-IP2 PDZ domain fusion protein
Assay: A/G assays

binding result	Binder
no binding	Biotin-ENLAPVTTFGKTNGYIA (also called CD148 (DEP-1)) [CD148 C-terminal peptide AA19L, biotinylated]
no binding	Biotin-SSKSKSSEESQTFFGLYKL (not fully specified, also called FasLigand; Fas ligand) [FasL C-terminal peptide AA23L-M, biotinylated]
no binding	B1
no binding	B2

Biological target: T4, GST-cytohesin binding protein PDZ …
Assay: A/G assays

binding result	Binder
no binding	Biotin-ENLAPVTTFGKTNGYIA (also called CD148 (DEP-1)) [CD148 C-terminal peptide AA19L, biotinylated]
no binding	Biotin-SSKSKSSEESQTFFGLYKL (not fully specified, also called FasLigand; Fas ligand) [FasL C-terminal peptide AA23L-M, biotinylated]
no binding	B1
no binding	B2

Biological target: T5, GST-DLG5 (p-dlg) PDZ domain fusion …
Assay: A/G assays

binding result	Binder
no binding	Biotin-ENLAPVTTFGKTNGYIA (also called CD148 (DEP-1)) [CD148 C-terminal peptide AA19L, biotinylated]
no binding	Biotin-SSKSKSSEESQTFFGLYKL (not fully specified, also called FasLigand; Fas ligand) [FasL C-terminal peptide AA23L-M, biotinylated]
no binding	B1
no binding	B2

Biological target: T6, GST-mouse syntenin fusion protein
Assay: A/G assays

binding result	Binder
no binding	Biotin-ENLAPVTTFGKTNGYIA (also called CD148 (DEP-1)) [CD148 C-terminal peptide AA19L, biotinylated]
no binding	Biotin-SSKSKSSEESQTFFGLYKL (not fully specified, also called FasLigand; Fas ligand) [FasL C-terminal peptide AA23L-M, biotinylated]
no binding	B1
no binding	B2

Biological target: T7, GST-TAX-IP40 PDZ domain fusion protein
Assay: A/G assays

binding result	Binder
no binding	Biotin-ENLAPVTTFGKTNGYIA (also called CD148 (DEP-1)) [CD148 C-terminal peptide AA19L, biotinylated]
no binding	Biotin-SSKSKSSEESQTFFGLYKL (not fully specified, also called FasLigand; Fas ligand) [FasL C-terminal peptide AA23L-M, biotinylated]
no binding	B1
no binding	B2

Biological target: T8, GST-DVL1 PDZ domain fusion protein
Assay: A/G assays

binding result	Binder
no binding	Biotin-ENLAPVTTFGKTNGYIA (also called CD148 (DEP-1)) [CD148 C-terminal peptide AA19L, biotinylated]
no binding	Biotin-SSKSKSSEESQTFFGLYKL (not fully specified, also called FasLigand; Fas ligand) [FasL C-terminal peptide AA23L-M, biotinylated]
no binding	B1
no binding	B2

Biological target: T9, GST-KIAA0303 PDZ domain fusion protein
Assay: A/G assays

binding result	Binder
no binding	Biotin-ENLAPVTTFGKTNGYIA (also called CD148 (DEP-1)) [CD148 C-terminal peptide AA19L, biotinylated]
no binding	Biotin-SSKSKSSEESQTFFGLYKL (not fully specified, also called FasLigand; Fas ligand) [FasL C-terminal peptide AA23L-M, biotinylated]
no binding	B1
no binding	B2

Biological target: T10, X11β PDZ-GST fusion protein
Assay: A/G assays

binding result	Binder
no binding	Biotin-ENLAPVTTFGKTNGYIA (also called CD148 (DEP-1)) [CD148 C-terminal peptide AA19L, biotinylated]
no binding	Biotin-SSKSKSSEESQTFFGLYKL (not fully specified, also called FasLigand; Fas ligand) [FasL C-terminal peptide AA23L-M, biotinylated]
no binding	B1
no binding	B2

Biological target: T11, TAX-IP33 PDZ-GST fusion protein
Assay: A/G assays

binding result	Binder
no binding	Biotin-ENLAPVTTFGKTNGYIA (also called CD148 (DEP-1)) [CD148 C-terminal peptide AA19L, biotinylated]
no binding	Biotin-SSKSKSSEESQTFFGLYKL (not fully specified, also called FasLigand; Fas ligand) [FasL C-terminal peptide AA23L-M, biotinylated]
no binding	B1
no binding	B2

Biological target: T12, K559 PDZ-GST fusion protein
Assay: A/G assays

binding result	Binder
no binding	Biotin-ENLAPVTTFGKTNGYIA (also called CD148 (DEP-1)) [CD148 C-terminal peptide AA19L, biotinylated]
no binding	Biotin-SSKSKSSEESQTFFGLYKL (not fully specified, also called FasLigand; Fas ligand) [FasL C-terminal peptide AA23L-M, biotinylated]
no binding	B1
no binding	B2

Biological target: T13, SP short PDZ-GST fusion protein
Assay: A/G assays

binding result	Binder
no binding	Biotin-ENLAPVTTFGKTNGYIA (also called CD148 (DEP-1)) [CD148 C-terminal peptide AA19L, biotinylated]
no binding	Biotin-SSKSKSSEESQTFFGLYKL (not fully specified, also called FasLigand; Fas ligand) [FasL C-terminal peptide AA23L-M, biotinylated]
no binding	B1
no binding	B2

Biological target: T14, GEF PDZ-GST fusion protein
Assay: A/G assays

binding result	Binder
no binding	Biotin-ENLAPVTTFGKTNGYIA (also called CD148 (DEP-1)) [CD148 C-terminal peptide AA19L, biotinylated]
no binding	Biotin-SSKSKSSEESQTFFGLYKL (not fully specified, also called FasLigand; Fas ligand) [FasL C-terminal peptide AA23L-M, biotinylated]
no binding	B1
no binding	B2
